Measured values published in the supplement of paper PMC11908140.

B1: library; numbered along this chain (parent)
chain: MRKPRAAVGSGHRKQAASQEGRQKHAKNNSQAKPSACDGLARQPEEVVLQASVSSYHLFRDVAEVTAFRGSLLSWYDQEKRDLPWRRRAEDEMDLDRRAYAVWVSEVMLQQTQVATVINYYTGWMQKWPTLQDLASASLEEVNQLWAGLGYYSRGRRLQEGARKVVEELGGHMPRTAETLQQLLPGVGRYTAGAIASIAFGQATGVVDGNVARVLCRVRAIGADPSSTLVSQQLWGLAQQLVDPARPGDFNQAAMELGATVCTPQRPLCSQCPVESLCRARQRVEQEQLLASGSLSGSPDVEECAPNTGQCHLCLPPSEPWDQTLGVVNFPRKASRKPPREESSATCVLEQPGALGAQILLVQRPNSGLLAGLWEFPSVTWEPSEQLQRKALLQELQRWAGPLPATHLRHLGEVVHTFSHIKLTYQVYGLALEGQTPVTTVPPGARWLTQEEFHTAAVSTAMKKVFRVYQGQQPGTCMGSKRSQVSSPCSRKKPRMGQQVLDNFFRSHISTDAHSLNSAAQ

Variants of: B1
Assay: 8OG:A repair function score (normalized; synonymous = 0, nonsense = -1) (normalized log-likelihood score); higher = more repair activity (WT-like)
Settings: with 8OG:A DNA repair reporter (GFP) in HEK-293 MUTYH KO cells
How it was run: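 Lentiviral MUTYH cDNA NNN codon-scan libraries in HEK-293 MUTYH knockout cells (10 pg/ml doxycycline) were co-transfected with an 8OG:A GFP repair reporter plus mCherry. At 72 h, viable mCherry+ cells were sorted into GFP+ (repair) and GFP− bins, three replicates per tile, then tile amplicons were sequenced. Per-tile Rosace fitness scores became a normalized repair function score anchored on synonymous and nonsense distributions. Synonymous medians were set to 0 and nonsense to -1; variants under 300 counts per million at the start were removed.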

8OG:A repair function score of substitutions, site by site:
G236: Q 0.356 | V -0.0226 | S 0.254 | I 0.00703 | C 0.116 | D 0.156 | P -0.455 | H -0.00754 | L -0.0738 | E 0.29 | Y -0.152 | T -0.0456 | F 0.0301 | N 0.18 | K 0.114 | A 0.149 | R 0.107
V242: W -1.01 | K -0.949 | H -0.806 | Q -0.763 | G -0.916 | T -0.488 | M -0.625 | F -0.874 | D -0.978 | E -0.964 | P -0.961 | A -0.526 | I 0.0144 | S -0.772 | Y -0.964 | R -0.886 | C -0.39 | N -0.576 | L -0.288
S231: A -0.0555 | F -0.24 | L -0.0707 | V -0.0155 | E 0.0501 | C -0.12 | K 0.154 | G -0.125 | T 0.0918 | R 0.201 | P -0.683 | N 0.155 | Q -0.132 | H -0.0123 | D -0.132 | I -0.0202 | W 0.173 | Y -0.226 | M 0.155
L229: A 0.087 | M -0.0886 | N -0.25 | D -0.158 | H 0.287 | Q -0.161 | I -0.0293 | G -0.0206 | Y 0.0445 | W -0.0377 | C -0.201 | E -0.064 | R 0.134 | P -0.112 | S 0.0557 | K 0.076 | F -0.0261 | T -0.124 | V 0.0526
S227: H -0.197 | V -0.241 | F -0.188 | G -0.0911 | W -0.244 | L -0.119 | I -0.232 | P -0.658 | Q -0.0353 | C -0.0498 | R -0.103 | D 0.49 | Y -0.307 | T 0.0756 | K 0.0372 | A -0.0215 | E -0.452 | N 0.126
Q232: W -0.433 | C -0.188 | I -0.459 | P -0.285 | L -0.326 | E 0.105 | V -0.243 | N -0.0697 | G 0.139 | H -0.21 | T -0.105 | K -0.0471 | R 0.171 | S -0.0424 | F -0.308 | D -0.0919 | M -0.355 | A -0.179 | Y -0.106
Q240: H -0.94 | P -1 | I -0.959 | N -0.999 | C -1.01 | W -1 | T -0.972 | D -0.979 | R -0.97 | S -0.945 | K -0.932 | Y -0.969 | G -1 | A -0.971 | F -0.939 | E -0.919 | M -0.867 | V -0.936 | L -0.948
L237: E -0.684 | H -0.433 | R -0.738 | T -0.184 | C -0.474 | G -0.848 | N -0.583 | Y -0.0407 | K -0.816 | S -0.551 | Q -0.281 | M -0.32 | D -0.692 | W -0.397 | P -0.931 | A -0.321 | V -0.463 | I 0.105 | F -0.257
V230: P -0.409 | K -0.826 | Q -0.787 | R -0.524 | C -0.229 | H -0.63 | S -0.422 | F -0.517 | M -0.387 | E -0.881 | I -0.264 | T -0.281 | G -0.152 | A -0.0122 | Y -0.311 | D -0.915 | W -0.571 | N -0.687 | L -0.499
L241: F -0.872 | Q -0.948 | I -0.264 | E -0.98 | M -0.522 | P -0.994 | N -0.946 | Y -0.893 | V -0.358 | G -0.827 | S -0.626 | C -0.37 | K -1.01 | H -1.01 | D -0.924 | T -0.51 | W -0.384 | R -1.03 | A -0.581
T228: I -0.152 | M 0.0193 | A 0.0743 | S 0.124 | W -0.106 | N -0.0359 | Y -0.0271 | E 0.0521 | R 0.329 | L 0.00837 | G 0.0678 | Q -0.217 | H 0.457 | V 0.153 | C -0.0551 | F -0.051 | P 0.212 | D -0.245 | K 0.0779
S226: R 0.00193 | D -0.146 | F -0.371 | A 0.0017 | V -0.247 | T -0.0677 | N 0.261 | G -0.00798 | W -0.231 | H 0.0371 | L -0.314 | E 0.00732 | Y -0.198 | K 0.026 | Q 0.176 | I -0.309 | M -0.173 | C -0.132 | P -0.642
A238: E -0.688 | N -0.887 | T -0.413 | S -0.0308 | C -0.249 | Y -0.881 | I -0.365 | H -0.805 | V 0.0238 | M 0.0352 | Q -0.254 | G -0.603 | D -0.714 | P -1.01 | R -1.01 | L -0.816 | K -0.887 | W -0.956 | F -0.858
Q233: F 0.305 | C -0.188 | K -0.089 | E -0.306 | G -0.0523 | A -0.259 | N -0.032 | D -0.318 | Y 0.0243 | R -0.19 | M 0.177 | P -0.428 | W -0.0138 | I 0.198 | T 0.244 | S 0.0726 | V 0.335 | L 0.227 | H 0.461
D243: L -0.818 | H -0.31 | M -0.753 | K -0.914 | T -0.727 | E -0.293 | C -0.276 | R -0.99 | G -0.755 | N -0.739 | S -0.358 | F -0.786 | P -0.554 | I -0.858 | A -0.387 | Q -0.829
L234: Q -0.724 | G -0.994 | N -0.855 | A -0.833 | V -0.29 | C -0.521 | D -1.03 | H -0.751 | P -1.02 | E -0.954 | W -0.79 | I -0.183 | Y -0.976 | K -0.869 | T -0.464 | S -0.827 | R -1.01
Q239: H 0.289 | N 0.162 | P -0.953 | R -0.232 | T -0.143 | W -0.74 | I -0.589 | M -0.146 | V -0.529 | A -0.104 | G -0.228 | C -0.184 | E -0.065 | L -0.403 | S -0.175 | F -0.526 | Y -0.309 | K -0.0216 | D 0.103
W235: P -1 | N -0.368 | R -0.496 | F -0.292 | E -0.204 | T -0.416 | I -0.342 | Y -0.177 | M -0.389 | K -0.51 | H -0.343 | C -0.509 | D -0.452 | L -0.406 | G -0.61 | S -0.516 | Q -0.314 | A -0.284 | V -0.467
